Experimental data from the supplement of paper PMC9112550, “Optimization of the antimicrobial peptide Bac7 by deep mutational scanning” (BMC Biology, 2022).

Tested on: Escherichia coli TOP10
Experiment: shrunken log2 fold change of peptide-encoding DNA abundance (4.5 h post-induction vs induction); higher = less antimicrobial activity (less host growth inhibition)
Conditions: time post-induction: 4.5 h; library: site-saturation at positions 5, 18, 19, 20
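Note: peptides expressed intracellularly from a pBAD plasmid library in pooled LB shake-flask culture, induced with 0.3% L-arabinose, DNA abundance read by NGS, three biological replicates, DESeq2 with apeglm shrinkage.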

Sequence | shrunken log2 fold change
RRIRMRPPRLPRPRPRPMDYPRP | -0.00149
RRIRLRPPRLPRPRPRPKHLPRP | -0.364
RRIRSRPPRLPRPRPRPMDQPRP | 0.362
RRIRSRPPRLPRPRPRPFKKPRP | 0.0549
RRIRSRPPRLPRPRPRPPGCPRP | 0.676
RRIRMRPPRLPRPRPRPYTYPRP | -0.398
RRIRCRPPRLPRPRPRPAFPPRP | 0.16
RRIRLRPPRLPRPRPRPPNMPRP | -0.076
RRIRIRPPRLPRPRPRPGFVPRP | 0.108
RRIRPRPPRLPRPRPRPERTPRP | 0.291
RRIRTRPPRLPRPRPRPSIDPRP | -0.397
RRIRRRPPRLPRPRPRPNIAPRP | -0.109
RRIRRRPPRLPRPRPRPADQPRP | 0.0865
RRIRDRPPRLPRPRPRPYYGPRP | 0.127
RRIRPRPPRLPRPRPRPMSPPRP | -0.194
RRIRARPPRLPRPRPRPGEMPRP | 0.228
RRIRIRPPRLPRPRPRPRHEPRP | 0.0234
RRIRKRPPRLPRPRPRPRVHPRP | 0.252
RRIRKRPPRLPRPRPRPQKRPRP | 0.403
RRIRMRPPRLPRPRPRPVHNPRP | -0.0275
RRIRRRPPRLPRPRPRPGGSPRP | 0.0293
RRIRVRPPRLPRPRPRPLSHPRP | -0.32
RRIRPRPPRLPRPRPRPPHHPRP | 0.188
RRIRERPPRLPRPRPRPPYDPRP | -1.12
RRIRLRPPRLPRPRPRPDSFPRP | -0.0169

Sequence | shrunken log2 fold change
RRIRDRPPRLPRPRPRPVQVPRP | 0.011
RRIRERPPRLPRPRPRPWFDPRP | -0.529
RRIRGRPPRLPRPRPRPFAMPRP | 0.68
RRIRIRPPRLPRPRPRPLGNPRP | -0.19
RRIRCRPPRLPRPRPRPWRDPRP | -0.0798
RRIRGRPPRLPRPRPRPFGIPRP | -0.0144
RRIRCRPPRLPRPRPRPRCPPRP | 0.418
RRIRVRPPRLPRPRPRPHSLPRP | -0.232
RRIRHRPPRLPRPRPRPCQNPRP | -0.0608
RRIRMRPPRLPRPRPRPCKTPRP | -0.00146
RRIRHRPPRLPRPRPRPFVSPRP | -0.19
RRIRRRPPRLPRPRPRPMCQPRP | 0.254
RRIRDRPPRLPRPRPRPKWKPRP | -0.00871
RRIRVRPPRLPRPRPRPYCCPRP | -0.252
RRIRCRPPRLPRPRPRPWPSPRP | -0.0603
RRIRQRPPRLPRPRPRPDFSPRP | 0.0756
RRIRIRPPRLPRPRPRPFKMPRP | -0.568
RRIRSRPPRLPRPRPRPKRMPRP | 0.00691
RRIRFRPPRLPRPRPRPLQLPRP | -0.51
RRIRMRPPRLPRPRPRPEHCPRP | 0.429
RRIRSRPPRLPRPRPRPWCMPRP | -0.781
RRIRHRPPRLPRPRPRPDNAPRP | -0.34
RRIRERPPRLPRPRPRPCTTPRP | -0.172
RRIRMRPPRLPRPRPRPIGEPRP | 0.0433
RRIRYRPPRLPRPRPRPETQPRP | -0.00798

Sequence | shrunken log2 fold change
RRIRIRPPRLPRPRPRPIADPRP | -0.0882
RRIRNRPPRLPRPRPRPPQKPRP | 0.544
RRIRQRPPRLPRPRPRPNAMPRP | -0.226
RRIRKRPPRLPRPRPRPPPGPRP | 0.961
RRIRWRPPRLPRPRPRPRDHPRP | 0.526
RRIRRRPPRLPRPRPRPSRKPRP | 0.129
RRIRSRPPRLPRPRPRPYENPRP | -0.229
RRIRTRPPRLPRPRPRPYKAPRP | -1.77
RRIRFRPPRLPRPRPRPCGPPRP | 0.243
RRIRKRPPRLPRPRPRPLRHPRP | 0.35
RRIRERPPRLPRPRPRPNRLPRP | -0.0671
RRIRLRPPRLPRPRPRPRPAPRP | 0.454
RRIRERPPRLPRPRPRPNECPRP | -0.154
RRIRQRPPRLPRPRPRPWHVPRP | -0.0656
RRIRDRPPRLPRPRPRPDGYPRP | -0.0204
RRIRNRPPRLPRPRPRPIFDPRP | -0.201
RRIRFRPPRLPRPRPRPPNGPRP | -0.0591
RRIRGRPPRLPRPRPRPGMNPRP | 0.105
RRIRCRPPRLPRPRPRPAWSPRP | 0.15
RRIRTRPPRLPRPRPRPSQTPRP | -0.169
RRIRRRPPRLPRPRPRPTKKPRP | 0.253
RRIRCRPPRLPRPRPRPAREPRP | 0.0467
RRIRARPPRLPRPRPRPTRVPRP | 0.343
RRIRLRPPRLPRPRPRPISQPRP | -0.135
RRIRLRPPRLPRPRPRPILFPRP | -0.0559

Sequence | shrunken log2 fold change
RRIRVRPPRLPRPRPRPDAWPRP | 0.0757
RRIRSRPPRLPRPRPRPLHQPRP | -0.248
RRIRWRPPRLPRPRPRPKANPRP | 0.51
RRIRIRPPRLPRPRPRPHHDPRP | -0.515
RRIRHRPPRLPRPRPRPFPEPRP | -0.104
RRIRFRPPRLPRPRPRPFDCPRP | -0.0469
RRIRMRPPRLPRPRPRPPMLPRP | 0.382
RRIRMRPPRLPRPRPRPDRFPRP | 0.207
RRIRRRPPRLPRPRPRPTHMPRP | 0.577
RRIRPRPPRLPRPRPRPASMPRP | -0.295
RRIRSRPPRLPRPRPRPGPMPRP | 0.34
RRIRWRPPRLPRPRPRPYMPPRP | -0.695
RRIRMRPPRLPRPRPRPTNLPRP | -0.0631
RRIRQRPPRLPRPRPRPGARPRP | 0.451
RRIRTRPPRLPRPRPRPSSVPRP | -0.139
RRIRMRPPRLPRPRPRPYYAPRP | -0.948
RRIRERPPRLPRPRPRPERAPRP | -0.024
RRIRIRPPRLPRPRPRPLHSPRP | -0.402
RRIRNRPPRLPRPRPRPGFIPRP | 0.0474
RRIRFRPPRLPRPRPRPYYAPRP | -1.21
RRIRARPPRLPRPRPRPANMPRP | -0.0999
RRIRWRPPRLPRPRPRPEYHPRP | 0.0167
RRIRNRPPRLPRPRPRPDSPPRP | -0.0758
RRIRFRPPRLPRPRPRPWDQPRP | 0.0971
RRIRNRPPRLPRPRPRPIQKPRP | -0.287

Sequence | shrunken log2 fold change
RRIRVRPPRLPRPRPRPCPIPRP | -0.296
RRIRHRPPRLPRPRPRPCGPPRP | -0.084
RRIRERPPRLPRPRPRPENTPRP | -0.354
RRIRGRPPRLPRPRPRPDEYPRP | 0.168
RRIRERPPRLPRPRPRPQWHPRP | -0.479
RRIRLRPPRLPRPRPRPTWLPRP | 0.584
RRIRQRPPRLPRPRPRPSFVPRP | -0.161
RRIRVRPPRLPRPRPRPQAWPRP | 0.416
RRIRIRPPRLPRPRPRPENIPRP | -0.106
RRIRSRPPRLPRPRPRPYGRPRP | -0.151
RRIRQRPPRLPRPRPRPEKEPRP | -0.0081
RRIRWRPPRLPRPRPRPCPHPRP | -0.00679
RRIRVRPPRLPRPRPRPPKWPRP | 0.133
RRIRHRPPRLPRPRPRPSATPRP | -0.00655
RRIRSRPPRLPRPRPRPNLSPRP | -0.425
RRIRSRPPRLPRPRPRPSKQPRP | -0.225
RRIRQRPPRLPRPRPRPLVQPRP | -0.361
RRIRHRPPRLPRPRPRPQFLPRP | -0.653
RRIRGRPPRLPRPRPRPMIHPRP | -0.0642
RRIRSRPPRLPRPRPRPLVRPRP | 0.0873
RRIRVRPPRLPRPRPRPCCIPRP | -0.0914
RRIRCRPPRLPRPRPRPAVTPRP | 0.0305
RRIRTRPPRLPRPRPRPGTLPRP | 0.16
RRIRERPPRLPRPRPRPILMPRP | -0.317
RRIRGRPPRLPRPRPRPIPHPRP | 0.196
